Test results published in the Immune Epitope Database (IEDB).

Tests used:
HLA-A*02:03 = assay: IEDB peptide-MHC binding, purified MHC/competitive/radioactivity; filed as Kd, often an IC50 or EC50 that approximates it; ≥ and ≤ were set here for values at or beyond the usual limits of such assays
HLA-A*02:06 = assay: as above
HLA-A*02:02 = assay: as above
HLA-A*30:02 = assay: as above
HLA-A*11:01 = assay: IEDB peptide-MHC binding, purified MHC/direct/fluorescence; filed as Kd, often an IC50 or EC50 that approximates it; ≥ and ≤ were set here for values at or beyond the usual limits of such assays; details: source organism: Homo sapiens
HLA-B*58:01 = assay: as above; details: source organism: Homo sapiens
HLA-A*69:01 = assay: as above
HLA-A*01:01 [1] = assay: as above; details: source organism: Homo sapiens
HLA-B*15:01 = assay: as above; details: source organism: Homo sapiens
HLA-A*03:01 = assay: as above
HLA-A*02:01 [2] = assay: IEDB peptide-MHC binding, purified MHC/competitive/fluorescence; filed as Kd, often an IC50 or EC50 that approximates it; ≥ and ≤ were set here for values at or beyond the usual limits of such assays
HLA-A*24:02 = assay: IEDB peptide-MHC binding, purified MHC/competitive/radioactivity; filed as Kd, often an IC50 or EC50 that approximates it; ≥ and ≤ were set here for values at or beyond the usual limits of such assays; details: source organism: Dengue virus 3 Martinique/1243/1999
HLA-A*31:01 = assay: IEDB peptide-MHC binding, purified MHC/direct/fluorescence; filed as Kd, often an IC50 or EC50 that approximates it; ≥ and ≤ were set here for values at or beyond the usual limits of such assays; details: source organism: Vibrio cholerae
HLA-A*02:01 [3] = assay: as above; details: source organism: Burkholderia mallei
HLA-B*40:01 = assay: as above; details: source organism: Influenza A virus
HLA-A*01:01 [4] = assay: IEDB peptide-MHC binding, purified MHC/competitive/radioactivity; filed as Kd, often an IC50 or EC50 that approximates it; ≥ and ≤ were set here for values at or beyond the usual limits of such assays; details: source organism: Dengue virus 3 Singapore/8120/1995
[5] = source organism: Vaccinia virus WR
[6] = source organism: Lassa virus Josiah
[7] = source organism: SARS coronavirus Tor2

Row | Sequence | Kd (HLA-A*02:03; [5]) [nM] | Kd (HLA-A*02:06; [5]) [nM] | Kd (HLA-A*02:02; [5]) [nM] | also measured
1 | SLVYGIRCV | 3.83 | 168 | 2940 | 
2 | SLYKGVYEL |  |  |  | Kd (HLA-A*02:03; [6]): 5.81 nM; Kd (HLA-A*02:06; [6]): 394 nM; Kd (HLA-A*02:02; [6]): 56.8 nM
3 | SRNSTHEMY |  |  |  | Kd (HLA-A*30:02; source organism: Dengue virus 4 Thailand/0348/1991): 1810 nM
4 | SSEQTFMYY |  |  |  | Kd (HLA-A*11:01): 263 nM; Kd (HLA-B*58:01): 2480 nM; Kd (HLA-A*69:01; source organism: Homo sapiens): 8340 nM; Kd (HLA-A*01:01 [1]): 42.1 nM; Kd (HLA-B*15:01): 1420 nM; Kd (HLA-A*03:01; source organism: Homo sapiens): 10200 nM
5 | STTGEWPLI | ≥ 44500 | 1240 | ≥ 21100 | 
6 | SVDEEGCGPL | ≥ 38700 | 12700 | 14800 | 
7 | TAIRAGYSI | 9200 | 7690 | 14500 | 
8 | TANIFRGSY |  |  |  | Kd (HLA-A*30:02; source organism: Dengue virus 4 Philippines/H241/1956): 6.79 nM
9 | TICLKNEGV | 120 | 311 | 494 | 
10 | TPRKKNYHF |  |  |  | Kd (HLA-A*02:01 [2]; source organism: Vibrio parahaemolyticus K5030): ≥ 20000 nM
11 | TTPLISFFGL | 17600 | 3360 | ≥ 5000 | 
12 | TWAQNIPTAI |  |  |  | Kd (HLA-A*24:02): 681 nM
13 | TYLHGIFDR |  |  |  | Kd (HLA-A*31:01): 17.1 nM; Kd (HLA-A*03:01; source organism: Vibrio cholerae): ≥ 20000 nM
14 | VIDRLPSET | 742 | 3670 | 7080 | 
15 | VLKAMHDKKI | ≥ 33900 | ≥ 69800 | ≥ 48900 | 
16 | VLRGRHDAA |  |  |  | Kd (HLA-A*02:01 [3]): 9250 nM; Kd (HLA-A*69:01; source organism: Burkholderia mallei): ≥ 20000 nM
17 | VMAPDKPSL |  |  |  | Kd (HLA-A*69:01; source organism: Yellow fever virus): ≥ 20000 nM
18 | VMHINSPFKV | 2.51 | 393 | 60.3 | 
19 | VMYASALVLL |  |  |  | Kd (HLA-A*02:03; [7]): 4.03 nM; Kd (HLA-A*02:06; [7]): 41.4 nM; Kd (HLA-A*02:02; [7]): 0.251 nM
20 | VQHPELTGL |  |  |  | Kd (HLA-B*40:01): 136 nM
21 | VVQHENLKY |  |  |  | Kd (HLA-A*30:02; source organism: Dengue virus 3 Singapore/8120/1995): 266 nM; Kd (HLA-A*01:01 [4]): 2400 nM
22 | WLVIGVAFL |  |  |  | Kd (HLA-A*02:03; [7]): 0.942 nM; Kd (HLA-A*02:06; [7]): 180 nM; Kd (HLA-A*02:02; [7]): 2.57 nM
23 | YIESKAKQL | 439 | 2990 | 144 | 
24 | YIMRVMANNV | 1.96 | 14.2 | 23 | 
25 | YLVQQESSFV |  |  |  | Kd (HLA-A*02:03; [7]): 17.5 nM; Kd (HLA-A*02:06; [7]): 386 nM; Kd (HLA-A*02:02; [7]): 12700 nM
26 | YLVVVGAVGV |  |  |  | Kd (HLA-A*02:01 [2]; source organism: unidentified): 10 nM
27 | YVKNGTKGKL | 7170 | ≥ 28400 | 5720 | 
